Measured values taken from patent US20150301040A1.

Assays:
[1] = target: human IGF1R-luciferase fusion protein (IGF1R-Luc) (human); assay: bridge assay: immobilized IGF1R-PGA14tag, antibody, IGF1R-Luc
[2] = target: human IGF1R-luciferase fusion protein (IGF1R-Luc) (human); assay: bridge assay: immobilized IGF1R-PGA14tag, antibody at 0.05 ng/ml, IGF1R-Luc
[3] = target: human IGF1R-luciferase fusion protein (IGF1R-Luc) (human); assay: bridge assay: immobilized IGF1R-PGA14tag, antibody at 0.8 ng/ml, IGF1R-Luc
[4] = target: human IGF1R-luciferase fusion protein (IGF1R-Luc) (human); assay: bridge assay: immobilized IGF1R-PGA14tag, antibody at 49 ng/ml, IGF1R-Luc
[5] = target: human IGF1R-luciferase fusion protein (IGF1R-Luc) (human); assay: bridge assay: immobilized IGF1R-PGA14tag, antibody at 0.2 ng/ml, IGF1R-Luc
[6] = target: human IGF1R-luciferase fusion protein (IGF1R-Luc) (human); assay: bridge assay: immobilized IGF1R-PGA14tag, antibody at 3125 ng/ml, IGF1R-Luc
[7] = target: human IGF1R-luciferase fusion protein (IGF1R-Luc) (human); assay: bridge assay: immobilized IGF1R-PGA14tag, antibody at 12500 ng/ml, IGF1R-Luc
[8] = target: human IGF1R-luciferase fusion protein (IGF1R-Luc) (human); assay: bridge assay: immobilized IGF1R-PGA14tag, antibody at 781 ng/ml, IGF1R-Luc
[9] = target: human IGF1R-luciferase fusion protein (IGF1R-Luc) (human); assay: bridge assay: immobilized IGF1R-PGA14tag, antibody at 12 ng/ml, IGF1R-Luc
[10] = target: human IGF1R-luciferase fusion protein (IGF1R-Luc) (human); assay: bridge assay: immobilized IGF1R-PGA14tag, antibody at 3 ng/ml, IGF1R-Luc
[11] = target: human IGF1R-luciferase fusion protein (IGF1R-Luc) (human); assay: bridge assay: immobilized IGF1R-PGA14tag, antibody at 195 ng/ml, IGF1R-Luc
[12] = target: human IGF1R-luciferase fusion protein (IGF1R-Luc) (human); assay: bridge assay: immobilized IGF1R-PGA14tag, antibody at 50000 ng/ml, IGF1R-Luc

Chain of human IGF1R-luciferase fusion protein (IGF1R-Luc) (human) (chain, as listed by the source limits assumed): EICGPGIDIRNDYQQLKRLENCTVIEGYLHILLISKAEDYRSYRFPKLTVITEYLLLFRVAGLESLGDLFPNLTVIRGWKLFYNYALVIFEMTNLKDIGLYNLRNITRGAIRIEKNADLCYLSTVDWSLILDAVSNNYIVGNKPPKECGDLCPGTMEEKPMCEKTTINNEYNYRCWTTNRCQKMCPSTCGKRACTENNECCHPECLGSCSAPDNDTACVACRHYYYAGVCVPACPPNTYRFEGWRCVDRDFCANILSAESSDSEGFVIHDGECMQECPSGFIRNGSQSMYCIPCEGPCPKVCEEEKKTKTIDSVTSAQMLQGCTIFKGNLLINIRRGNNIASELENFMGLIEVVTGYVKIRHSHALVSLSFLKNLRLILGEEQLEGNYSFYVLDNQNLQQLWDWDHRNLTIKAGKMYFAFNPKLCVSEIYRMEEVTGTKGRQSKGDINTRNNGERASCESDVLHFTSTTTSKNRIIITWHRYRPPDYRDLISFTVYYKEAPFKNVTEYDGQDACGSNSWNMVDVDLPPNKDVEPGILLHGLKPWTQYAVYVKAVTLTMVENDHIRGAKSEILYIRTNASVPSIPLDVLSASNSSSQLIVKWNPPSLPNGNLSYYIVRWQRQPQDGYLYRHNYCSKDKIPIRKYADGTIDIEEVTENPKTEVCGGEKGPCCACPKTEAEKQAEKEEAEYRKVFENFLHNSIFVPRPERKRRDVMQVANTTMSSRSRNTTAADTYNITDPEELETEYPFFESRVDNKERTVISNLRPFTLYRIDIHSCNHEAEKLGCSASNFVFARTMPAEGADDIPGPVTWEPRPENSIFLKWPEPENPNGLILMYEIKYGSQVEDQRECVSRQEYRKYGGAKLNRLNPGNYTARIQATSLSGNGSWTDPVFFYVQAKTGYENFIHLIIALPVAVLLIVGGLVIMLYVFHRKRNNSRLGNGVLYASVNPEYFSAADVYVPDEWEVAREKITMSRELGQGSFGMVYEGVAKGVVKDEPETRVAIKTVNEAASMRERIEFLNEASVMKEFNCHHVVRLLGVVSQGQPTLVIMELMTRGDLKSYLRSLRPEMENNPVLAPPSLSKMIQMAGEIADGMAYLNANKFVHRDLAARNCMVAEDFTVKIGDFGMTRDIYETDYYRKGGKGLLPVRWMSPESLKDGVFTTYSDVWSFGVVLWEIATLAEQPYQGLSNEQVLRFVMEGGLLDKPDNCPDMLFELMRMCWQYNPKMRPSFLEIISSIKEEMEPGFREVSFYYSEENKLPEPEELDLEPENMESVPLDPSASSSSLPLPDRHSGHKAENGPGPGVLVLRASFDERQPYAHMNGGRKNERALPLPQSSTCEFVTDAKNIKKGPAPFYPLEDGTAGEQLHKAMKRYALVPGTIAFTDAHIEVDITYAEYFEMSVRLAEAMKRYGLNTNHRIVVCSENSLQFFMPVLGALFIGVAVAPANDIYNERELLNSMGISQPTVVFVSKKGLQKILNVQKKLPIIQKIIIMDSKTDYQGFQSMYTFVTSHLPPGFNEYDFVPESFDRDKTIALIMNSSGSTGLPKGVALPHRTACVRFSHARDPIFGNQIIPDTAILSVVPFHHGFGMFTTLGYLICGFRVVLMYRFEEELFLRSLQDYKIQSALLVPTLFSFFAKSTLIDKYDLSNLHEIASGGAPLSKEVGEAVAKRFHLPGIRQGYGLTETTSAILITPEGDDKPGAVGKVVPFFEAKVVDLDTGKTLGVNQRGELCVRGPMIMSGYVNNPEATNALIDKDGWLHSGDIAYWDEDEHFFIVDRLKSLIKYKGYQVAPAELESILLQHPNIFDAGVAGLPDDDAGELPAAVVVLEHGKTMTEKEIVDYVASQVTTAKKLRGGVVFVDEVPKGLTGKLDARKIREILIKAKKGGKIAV

detection limit [1]: 0.2 ng/mL
RLU bound [2]: 5370 RLU
RLU bound [3]: 8860 RLU
RLU bound [4]: 88900 RLU
RLU bound [5]: 5900 RLU
RLU bound [6]: 627000 RLU
RLU bound [7]: 767000 RLU
RLU bound [8]: 476000 RLU
RLU bound [9]: 27000 RLU
RLU bound [10]: 11800 RLU
RLU bound [11]: 235000 RLU
RLU bound [12]: 805000 RLU
Substance: Monoclonal antibody to the extracellular domain of IGF1R (anti-IGF1R clone#24-75, Millipore, USA)
